Source: US11618906B2, “Hydroxylation techniques” (HYPHA DISCOVERY LTD., priority 2018, dated 2023)

Columns and labels:
Format in all cases: biochemical
[1] = Metabolism of celecoxib by P450 aluC09 and mutants; details: percent of substrate being converted; 0.125 mg/ml, 27° C., 16-20 hours; [CYP] per enzyme as in Table 8
Outline: (§1)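 Lyophilised P450 aluC09 mutants with ferredoxin aluF03 and reductase SCF15A converted 0.125 mg/ml substrate in 50 mM potassium phosphate pH 7.4, 5 mM MgCl2, with G6P/NADP/G6PDH cofactor regeneration, for 16-20 h at 27° C with shaking. Acetonitrile-quenched mixtures were analysed by UPLC-MS for conversion.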

[2] = Metabolism of valsartan by P450 aluC09 and mutants; details: percent of substrate being converted; 0.125 mg/ml, 27° C., 16-20 hours; [CYP] per enzyme as in Table 8
Outline: as §1

[3] = Metabolism of ruxolitinib by P450 aluC09 and mutants; details: percent of substrate being converted; 0.125 mg/ml, 27° C., 16-20 hours; [CYP] per enzyme as in Table 8
Outline: as §1

[4] = Hydroxylation of aceclofenac catalysed by cytochrome P450 aluC09 and mutants; details: for Aceclofenac (Substrate) (1.80 mins) / Dihydroxy-Aceclofenac (1.42 mins) / Hydroxy-Aceclofenac (1) (1.64 min) / Hydroxy-Aceclofenac (2) (1.60 min): % by UV peak area at 275 nm, 0.125 mg/ml substrate, 27° C., 16-20 hours; for Hydroxylated Ratio 2:1: aceclofenac, ratio of UV peak areas at 275 nm
Outline: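 Conversion was assessed by UPLC-MS (UV and MS detection) after acetonitrile extraction of reactions run 16-20 h at 27° C, shaking. Reactions contained substrate at 0.125 mg/ml, P450 mutant plus ferredoxin and reductase partners, 1 mM NADP with glucose-6-phosphate regeneration, in phosphate buffer pH 7.4.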

[5] = Metabolism of tivantinib by P450 aluC09 and mutants; details: percent of substrate being converted; 0.125 mg/ml, 27° C., 16-20 hours; [CYP] per enzyme as in Table 8
Outline: as §1

[6] = Hydroxylation of flufenamic acid catalysed by cytochrome P450 aluC09 and mutants; details: for Flufenamic Acid (Substrate) 1.93 mins / Hydroxy-Flufenamic Acid (1) 1.69 mins / Hydroxy-Flufenamic Acid (2) 1.65 mins: % by UV peak area at 275 nm, 0.125 mg/ml substrate, 27° C., 16-20 hours; for Hydroxylated Ratio 1:2: flufenamic acid, ratio of UV peak areas at 275 nm
Outline: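 Conversion measured by UPLC-MS (UV and MS) after acetonitrile extraction, following 16-20 h shaking at 27° C. Reaction: 0.125 mg/ml substrate, P450 mutant plus ferredoxin aluF03 and reductase SCF15A, 5 mM G6P, 1 mM NADP, 2 U/ml G6PDH, pH 7.4 phosphate with 5 mM MgCl2.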

[7] = Hydroxylation / de-N-ethylation of napropamide catalysed by cytochrome P450 aluC09 and mutants; details: for Desethyl Napropamide (1.62 min) / Desethyl-hydroxy-Napropamide (1.41 min) / Hydroxy-Napropamide (1) (1.53 min) / Hydroxy-Napropamide (2), (1.52 min) / M-2Da (unidentified) (1.89 min) / Napropamide (substrate): % by UV peak area at 275 nm, 0.125 mg/ml substrate, 27° C., 16-20 hours; for Hydroxylated Ratio 2:1: napropamide, ratio of UV peak areas
Outline: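 Conversion of napropamide (0.125 mg/ml) to hydroxylated and de-ethylated metabolites was measured by UPLC-MS after acetonitrile extraction. Reactions ran 16-20 h at 27° C in pH 7.4 potassium phosphate (50 mM) with 5 mM MgCl2, 1 mM NADP, 5 mM G6P and 2 UN/ml G6PDH. Enzymes were lyophilised P450 aluC09 variants, ferredoxin aluF03 and ferredoxin reductase SCF15A.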

[8] = Metabolism of bosentan by P450 aluC09 and mutants; details: percent of substrate being converted; 0.125 mg/ml, 27° C., 16-20 hours; [CYP] per enzyme as in Table 8
Outline: as §1

[9] = Hydroxylation of diclofenac catalysed by cytochrome P450 aluC09 and mutants (UPLC-PDA-MS); details: for 4′,5-dihydroxy-diclofenac 1.38 mins / 4′-hydroxy-diclofenac (1) 1.62 mins / 5-hydroxy-diclofenac (2) 1.58 mins / Diclofenac (Substrate) 1.81 mins: % by UV peak area at 275 nm, 0.125 mg/ml substrate, 27° C., 16-20 hours; for Hydroxylated Ratio hydroxy 1:hydroxy 2: diclofenac, ratio of UV peak areas at 275nm
Outline: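 Conversion of diclofenac (0.125 mg/ml) to hydroxy metabolites measured by UPLC with UV and MS detection, identities confirmed by authentic samples. Reactions used P450 aluC09 variants with ferredoxin aluF03, reductase SCF15A and an NADP/G6P/G6PDH recycling system, pH 7.4 phosphate, 27° C, 16-20 hours.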

[10] = Metabolism of buparvaquone by P450 aluC09 and mutants; details: percent of substrate being converted; 0.125 mg/ml, 27° C., 16-20 hours; [CYP] per enzyme as in Table 8
Outline: as §1

[11] = Metabolism of tofacitinib by P450 aluC09 and mutants; details: percent of substrate being converted; 0.125 mg/ml, 27° C., 16-20 hours; [CYP] per enzyme as in Table 8
Outline: as §1

[12] = Metabolism of ritonavir by P450 aluC09 and mutants; details: percent of substrate being converted; 0.125 mg/ml, 27° C., 16-20 hours; [CYP] per enzyme as in Table 8
Outline: as §1

[13] = O-demethylation of indomethacin catalysed by cytochrome P450 aluC09 and mutants; details: % by UV peak area at 275 nm; 0.125 mg/ml substrate, 27° C., 16-20 hours
Outline: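 Conversion was quantified by UPLC-UV/MS after acetonitrile extraction of 16-20 h, 27° C. shaken reactions. These contained 0.125 mg/ml substrate, mutant P450 with partner ferredoxin and reductase, 1 mM NADP plus 5 mM G6P and 2 U/ml G6PDH, in pH 7.4 phosphate with 5 mM MgCl2.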

[14] = Metabolism of 4-pyrrolidylacetophenone by P450 aluC09 and mutants; details: percent of substrate being converted; 0.125 mg/ml, 27° C., 16-20 hours; [CYP] per enzyme as in Table 8
Outline: as §1

[15] = Metabolism of BIRB796 by P450 aluC09 and mutants; details: percent of substrate being converted; 0.125 mg/ml, 27° C., 16-20 hours; [CYP] per enzyme as in Table 8
Outline: as §1

[16] = Metabolism of epothilone B by P450 aluC09 and mutants; details: percent of substrate being converted; 0.125 mg/ml, 27° C., 16-20 hours; [CYP] per enzyme as in Table 8
Outline: as §1

| Molecule | % conversions (avg) Celecoxib [1] [%] | % conversions (avg) Valsartan [2] [%] | % conversions (avg) Ruxolitinib [3] [%] | Aceclofenac (Substrate) (1.80 mins) [4] [%] | Dihydroxy-Aceclofenac (1.42 mins) [4] [%] | Hydroxy-Aceclofenac (1) (1.64 min) [4] [%] | Hydroxy-Aceclofenac (2) (1.60 min) [4] [%] | Hydroxylated Ratio 2:1 [4] | % conversions (avg) Tivantinib [5] [%] | Flufenamic Acid (Substrate) 1.93 mins [6] [%] | Hydroxy-Flufenamic Acid (1) 1.69 mins [6] [%] | Hydroxy-Flufenamic Acid (2) 1.65 mins [6] [%] | Hydroxylated Ratio 1:2 [6] | Desethyl Napropamide (1.62 min) [7] [%] | Desethyl-hydroxy-Napropamide (1.41 min) [7] [%] | Hydroxy-Napropamide (1) (1.53 min) [7] [%] | Hydroxy-Napropamide (2), (1.52 min) [7] [%] | M-2Da (unidentified) (1.89 min) [7] [%] | Napropamide (substrate) [7] [%] | Hydroxylated Ratio 2:1 [7] | also measured |
| --- | --- | --- | --- | --- | --- | --- | --- | --- | --- | --- | --- | --- | --- | --- | --- | --- | --- | --- | --- | --- | --- |
| aluC09M39: cytochrome P450 aluC09 mutant T291K; amino acid sequence SEQ ID NO: 68 (protein, listed as Amycolatopsis lurida) MTDVEETTATLPLARKCPFSPPPEYERLRRESPVSRVGLPSGQTAWALTRLEDIREMLSSPHFSSDRQSPSFPLMVARQIRREDKPFRPSLIAMDPPEHSRARRDVVGEFTVKRMKALQPRIQQIVDEHLDALLAGPKPADLVQALSLPVPSLVICELLGVPYSDHEFFQSCSSRMLSREVTAEERMTAFEQLENYLDELVTKKEANATEDDLLGRQILKQRETGEADHGELVGLAFLLLIAGHETTANMISLGTVTLLENPDQLAKIKADPGKTLAAIEELLRVFTIAEKATSRFATADVEIGGTLIRAGEGVVGLSNAGNHDPDGFENPDTFDIERGARHHVAFGFGVHQCLGQNLARLELQIVFDTLFRRVPGLRIAVPVDELPFKHDSTIYGLHALPVTW | 0 | 7.8 | 5.3 | 63.7 | 4.4 | 18.6 | 13.3 | 0.7 | 7.2 | 94.4 | 5.1 | 0.5 | 4.9 | 16.3 | 0.7 | 1.4 | 1.6 | 2.3 | 78.2 | 1.2 | production of hydroxyl-flufenamic acid 2 ([6]; peak at 1.65 minutes, compared to wild-type): no detectable production; % conversions (avg) Bosentan [8]: 85.1%; 4′,5-dihydroxy-diclofenac 1.38 mins [9]: 2.1%; 4′-hydroxy-diclofenac (1) 1.62 mins [9]: 42.8%; 5-hydroxy-diclofenac (2) 1.58 mins [9]: 14.6%; Diclofenac (Substrate) 1.81 mins [9]: 41.4%; Hydroxylated Ratio hydroxy 1:hydroxy 2 [9]: 2.9; % conversions (avg) Buparvaquone [10]: 0%; % conversions (avg) Tofacitinib [11]: 0%; % conversions (avg) Ritonavir [12]: 39.2%; Indomethacin (1.74 mins) [13]: 93.0%; O-demethyl-Indomethacin (1.52 mins) [13]: 7.0%; % conversions (avg) 4-pyrrolidylacetophenone [14]: 1.5%; % conversions (avg) BIRB796 [15]: 0%; % conversions (avg) Epothilone B [16]: 1.6% |
| aluC09M38: cytochrome P450 aluC09 mutant T291H; amino acid sequence SEQ ID NO: 64 (protein, listed as Amycolatopsis lurida) MTDVEETTATLPLARKCPFSPPPEYERLRRESPVSRVGLPSGQTAWALTRLEDIREMLSSPHFSSDRQSPSFPLMVARQIRREDKPFRPSLIAMDPPEHSRARRDVVGEFTVKRMKALQPRIQQIVDEHLDALLAGPKPADLVQALSLPVPSLVICELLGVPYSDHEFFQSCSSRMLSREVTAEERMTAFEQLENYLDELVTKKEANATEDDLLGRQILKQRETGEADHGELVGLAFLLLIAGHETTANMISLGTVTLLENPDQLAKIKADPGKTLAAIEELLRVFTIAEHATSRFATADVEIGGTLIRAGEGVVGLSNAGNHDPDGFENPDTFDIERGARHHVAFGFGVHQCLGQNLARLELQIVFDTLFRRVPGLRIAVPVDELPFKHDSTIYGLHALPVTW | 2.3 | 61.9 | 30.8 | 29.8 | 28.9 | 11.9 | 29.4 | 2.5 | 27.6 | 95.3 | 2.9 | 1.8 | 1.6 | 45.6 | 3.8 | 1.0 | 3.9 | 6.2 | 41.1 | 3.9 | % conversions (avg) Bosentan [8]: 98.7%; 4′,5-dihydroxy-diclofenac 1.38 mins [9]: 2.9%; 4′-hydroxy-diclofenac (1) 1.62 mins [9]: 44.5%; 5-hydroxy-diclofenac (2) 1.58 mins [9]: 18.9%; Diclofenac (Substrate) 1.81 mins [9]: 35.6%; Hydroxylated Ratio hydroxy 1:hydroxy 2 [9]: 2.4; % conversions (avg) Buparvaquone [10]: 4.1%; % conversions (avg) Tofacitinib [11]: 0.7%; % conversions (avg) Ritonavir [12]: 64.2%; Indomethacin (1.74 mins) [13]: 83.8%; O-demethyl-Indomethacin (1.52 mins) [13]: 16.2%; % conversions (avg) 4-pyrrolidylacetophenone [14]: 2.9%; % conversions (avg) BIRB796 [15]: 13.6%; % conversions (avg) Epothilone B [16]: 13.4% |
